From article PMC12112554, “Estrogen-Related Receptor Potential Target Genes in Silkworm (Bombyx mori): Insights into Metabolic Regulation”

B1: UGT46A2 CRE2 (dsDNA)
DNA 1: TCGTCGTAACCTTAAAGATA
DNA 2: TATCTTTAAGGTTACGACGA
B2: Akr2e CRE2 (dsDNA)
DNA 1: ACTAGTTAAGGTTACGCTGA
DNA 2: TCAGCGTAACCTTAACTAGT
B3: Tret1 CRE1 (dsDNA)
DNA 1: AGCTTCTCCTTGACGTGTAG
DNA 2: CTACACGTCAAGGAGAAGCT
B4: GK CRE1 (dsDNA)
DNA 1: CCCCATGACCTTCGCCGG
DNA 2: CCGGCGAAGGTCATGGGG
B5: FAH CRE1 (dsDNA)
DNA 1: TTTTTCCAAGGACGTTTGAG
DNA 2: CTCAAACGTCCTTGGAAAAA
B6: GlyP CRE3 (dsDNA)
DNA 1: ACGTCCAACGTCAAACCA
DNA 2: TGGTTTGACGTTGGACGT
B7: Aldh1b1 CRE3 (dsDNA)
DNA 1: CCTGGTTAAGGTTAGAAGTC
DNA 2: GACTTCTAACCTTAACCAGG
B8: Tret1 CRE2 (dsDNA)
DNA 1: TTTTTGTAACCTTAAACTCCT
DNA 2: AGGAGTTTAAGGTTACAAAAA
B9: Tret1 CRE3 (dsDNA)
DNA 1: GCGGACTCACAAGGTCCTACCA
DNA 2: TGGTAGGACCTTGTGAGTCCGC
B10: Ca7 CRE2 (dsDNA)
DNA 1: TTTATTGCCCTTGTAGGC
DNA 2: GCCTACAAGGGCAATAAA
B11: HPD CRE1 (dsDNA)
DNA 1: ACACGCGCCCTTTATATA
DNA 2: TATATAAAGGGCGCGTGT
B12: Atgl CRE3 (dsDNA)
DNA 1: CGCTCTGACATTGAAAAG
DNA 2: CTTTTCAATGTCAGAGCG
B13: HPD CRE2 (dsDNA)
DNA 1: GGACTATAACCTCGTCTCTT
DNA 2: AAGAGACGAGGTTATAGTCC
B14: HPD CRE3 (dsDNA)
DNA 1: TCCACAAACGTCAATAGC
DNA 2: GCTATTGACGTTTGTGGA
B15: UGT33D8 CRE2 (dsDNA)
DNA 1: TCAGGCAAGGTCAAAGCC
DNA 2: GGCTTTGACCTTGCCTGA
B16: TPS CRE3 (dsDNA)
DNA 1: GGCTGTAACCTTGTCCTC
DNA 2: GAGGACAAGGTTACAGCC
B17: Ca7 CRE3 (dsDNA)
DNA 1: GACTTCGAATGTCATGTCGC
DNA 2: GCGACATGACATTCGAAGTC
B18: Ca7 CRE4 (dsDNA)
DNA 1: ATTCAATAGGTTATTTCT
DNA 2: AGAAATAACCTATTGAAT
B19: Acyl CRE1 (dsDNA)
DNA 1: TATATTGCCCTTGTAAGT
DNA 2: ACTTACAAGGGCAATATA
B20: Ca7 CRE1 (dsDNA)
DNA 1: TAATGTGACTTTGAATCG
DNA 2: CGATTCAAAGTCACATTA
B21: Chsy1 CRE1 (dsDNA)
DNA 1: TCTCACAAGGTTGATGTC
DNA 2: GACATCAACCTTGTGAGA
B22: GK CRE3 (dsDNA)
DNA 1: GATTGTCAATGTCAATGTCATGAACA
DNA 2: TGTTCATGACATTGACATTGACAATC

Experiments:
Conditions in all cases: protein: recombinant; label: biotin 3'; blunt
BmERR DBD [1] = molecular target: T1, BmERR DBD (Bombyx mori, UniProt A0A1B1M0R7 103-178); assay: EMSA; EMSA, Beyotime kit buffer (composition not given), 25 °C 25 min; 5% native PAGE in 1x TBE (45 mM Tris-borate, 1 mM EDTA, pH 8.3)
T1 sequence: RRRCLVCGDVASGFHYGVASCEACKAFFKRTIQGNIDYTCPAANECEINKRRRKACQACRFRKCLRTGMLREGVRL

BmERR DBD [2] = molecular target: T1, BmERR DBD; assay: EMSA; not among Table 2 motifs; EMSA, Beyotime kit buffer (composition not given), 25 °C 25 min; 5% native PAGE in 1x TBE (45 mM Tris-borate, 1 mM EDTA, pH 8.3)
BmERR DBD [3] = molecular target: T1, BmERR DBD; assay: EMSA; listed in Table 2; text names only CRE1 and CRE2; EMSA, Beyotime kit buffer (composition not given), 25 °C 25 min; 5% native PAGE in 1x TBE (45 mM Tris-borate, 1 mM EDTA, pH 8.3)

Binder	binding result (BmERR DBD [1])	also measured
B1	binds	
B2	binds	
B3		binding result (BmERR DBD [2]): binds
B4	binds	
B5	binds	
B6	binds	
B7	binds	
B8		binding result (BmERR DBD [2]): binds
B9		binding result (BmERR DBD [3]): binds
B10	binds	
B11	binds	
B12	binds	
B13	binds	
B14	binds	
B15	binds	
B16	binds	
B17	binds	
B18	binds	
B19	binds	
B20	binds	
B21	binds	
B22	binds	
